Results from patent US20150315289A1 (published 2015).
Positions of bridges follow the written chain, without caps; N, C: chain ends. No end group written: not given here.

What was measured:
[1] = biological target: T1, linear phage-display peptide WTWNITKAYPLP; test: phage-displayed peptide screen with hPAM4 and mPAM4
T1 peptide: WTWNITKAYPLP
Source text: (§1) The first was a linear peptide library consisting of 12 amino acid sequences and the second was a cyclic peptide consisting of 7 amino acid sequences cyclized by a disulfide bridge.

[2] = biological target: T2, cyclic phage-display peptide ACPEWWGTTC (disulfide 2-10); test: phage-displayed peptide immunoreactivity, against the linear peptide
T2 peptide: ACPEWWGTTC

[3] = biological target: T3, linear phage-display peptide WTWNITKEYPQP; test: degenerate phage library panned and screened as before (hPAM4 and mPAM4)
T3 peptide: WTWNITKEYPQP
Source text: as §1

MUC17 = MUC17 (UniProt Q685J3 26-4493); test: immunofluorescence co-localisation on human carcinoma cell lines (data not shown)

B1: murine PAM4 (mPAM4) (antibody, V domains shown)
VH: EVQLQESGPELVKPGASVKMSCKASGYTFPSYVLHWVKQKPGQGLEWIGYINPYNDGTQYNEKFKGKATLTSDKSSSTAYMELSRLTSEDSAVYYCARGFGGSYGFAYWGQGTLITVSA
VL: DIVMTQSPAIMSASPGEKVTMTCSASSSVSSSYLYWYQQKPGSSPKLWIYSTSNLASGVPARFSGSGSGTSYSLTISSMEAEDAASYFCHQWNRYPYTFGGGTKLEIK
notes: also called MAb PAM4; mAb-PAM4
- binding result [1]: binds
- immunoreactivity relative to the linear sequence [2]: ~10%
- binding result [3]: binds

B2: humanized PAM4 (hPAM4) IgG (antibody, V domains shown)
VH: QVQLQQSGAEVKKPGASVKVSCEASGYTFPSYVLHWVKQAPGQGLEWIGYINPYNDGTQYNEKFKGKATLTRDTSINTAYMELSRLRSDDTAVYYCARGFGGSYGFAYWGQGTLVTVSS
VL: DIQLTQSPSSLSASVGDRVTMTCSASSSVSSSYLYWYQQKPGKAPKLWIYSTSNLASGVPARFSGSGSGTDFTLTISSLQPEDSASYFCHQWNRYPYTFGGGTRLEIKR
notes: humanized IgG1 kappa; used HRP-conjugated in some ELISAs and blots; also called clivatuzumab; HRP-hPAM4
- binding result [1]: binds
- binding result [3]: binds
- binding result (MUC17): no binding
